These results are taken from patent US20040091465A1, “Therapeutic antiangiogenic compositions and methods” (priority 2002, published 2004).

The subject of experiment [1] is EOMA hemangioendothelioma cells. Briefly: Non-endothelial cell proliferation assay, EOMA. In kind it is cell-based, murine. The settings on record: 72 hours. The procedure:
(§1) Bovine aortic smooth muscle (SMC), bovine retinal pigment epithelial (RPE), mink lung epithelial (MLE), Lewis lung carcinoma (LLC), and EOMA cells and 3T3 fibroblasts were maintained in a 10% CO2 and 37° C. incubator. For the proliferation assays, cells were washed with PBS and were dispersed in a 0.05% solution of trypsin. Optimal conditions for the cell proliferation assays were established for each different cell type. Fetal calf serum (FCS) was used for the RPE, MLE, and LLC cells and BCS was used for the other cell types. A cell suspension (20,000 cells/ml for SMC, RPE, MLE; 15,000 cells/ml for 3T3; 10,000 cells/ml for LLC, EOMA) was made with DMEM+10% bovine serum+1% GPS, plated onto 24 well culture plates (0.5 ml/well), and incubated (37° C., 10% C02) for 24 hours. The media was replaced with 0.5 ml of DMEM+5% bovine serum+1% GPS and the test sample applied. After 72 hours, cells were dispersed in trypsin, resuspended in Hematall (Fisher Scientific, Pittsburgh, Pa.), and counted by Coulter counter.

The test system of experiment [2] is Bovine retinal pigment epithelial cells. Nature of the experiment: Non-endothelial cell proliferation assay, RPE. The settings on record: 72 hours. Type of experiment: cell-based. As to the method:
as §1

The test system of experiment [3] is bovine capillary endothelial cells. Nature of the experiment: Bovine capillary endothelial (BCE) cell proliferation assay, 72 hours, bFGF. In kind it is cell-based. The procedure:
To further characterize the 20 kDa inhibitor, we tested it on several cell lines of endothelial and non-endothelial origin. For the BCE assay, bovine capillary endothelial cells were obtained and grown as previously described (Folkman et al., 1979). For the proliferation assay, cells were washed with PBS and dispersed in a 0.05% solution of trypsin. A cell suspension (25,000 cells/ml) was made with DMEM+10% BCS+1% GPS, plated onto gelatinized 24-well culture plates ([…]), and incubated (37° C., 10% CO2) for 24 hours. The media was replaced with 0.25 ml of DMEM+5% BCS+1% GPS and the test sample applied. After 20 minutes of incubation, media and bFGF were added to obtain a final volume of 0.5 ml of DMEM+5% BCS+1% GPS+1 ng/ml bFGF. After 72 hours, cells were dispersed in trypsin, resuspended in Hematall (Fisher Scientific, Pittsburgh, Pa.), and counted by Coulter counter.

For experiment [4], the system named is Mink lung epithelial cells. Nature of the experiment: Non-endothelial cell proliferation assay, MLE. Type of experiment: cell-based. The settings on record: 72 hours. As to the method: as §1
The next experiment deals with 3T3 fibroblasts. Nature of the experiment: Non-endothelial cell proliferation assay, 3T3. Type of experiment: cell-based. To be noted: 72 hours. The procedure:
as §1

For experiment [5], the system named is Lewis Lung carcinoma cells. Nature of the experiment: Non-endothelial cell proliferation assay, LLC. Type of experiment: cell-based. To be noted: 72 hours. As to the method: as §1
In experiment [6] the test system is Bovine aortic smooth muscle cells. Nature of the experiment: Non-endothelial cell proliferation assay, SMC. Type of experiment: cell-based. The settings on record: 72 hours. The procedure: as §1
Experiment [7] concerns cells of non-endothelial origin. Briefly: Non-endothelial cell proliferation assays, stated for all lines together. Type of experiment: cell-based. To be noted: doses 1 log unit higher than those used to inhibit capillary endothelial cell proliferation. As to the method: as §1
In experiment [8] the test system is Lewis lung carcinoma primary tumors. Briefly: Systemic therapy of Lewis lung carcinoma primary tumors. Type of experiment: in vivo, mice. The settings on record: 20 mg/kg/day, FIG. 11.

Some results are limits rather than exact numbers.

B1: endostatin: 20 kDa inhibitor of endothelial cell proliferation purified from EOMA conditioned media; C-terminal fragment of collagen XVIII NC1 domain (protein, listed as Homo sapiens)
chain: HSHRDFQPVLHLVALNSPLSGGMRGIRGADFQCFQQARAVGLAGTFRAFLSSRLQDLYSIVRRADRAAVPIVNLKDELLFPSWEALFSGSEGPLKPGARIFSFDGKDVLRHPTWPQKSVWHGSDPNGRRLTESYCETWRTEAPSATGQASSLLGGRLLGQSAASCHHAYIVLCIENSFMTASK
As to B1, the “Effect on EOMA hemangioendothelioma cell proliferation” value is given as “no effect” in [1] and “NON-INHIBITED” in experiment [1] (listed as ENDOSTATIN). Moreover, in experiment [2], the “Effect on bovine retinal pigment epithelial cell proliferation” value is recorded as “NON-INHIBITED”. In addition, the “Dose at which inhibition of endothelial cell proliferation was first observed” value in experiment [3] (72 hour BCE assay) was determined as 100 ng/mL. Moreover, in experiment [3] (72 hour BCE assay), the “Dose giving maximal inhibition of endothelial cell proliferation” value was no less than 600 ng/mL. In experiment [3] (72 hour proliferation assay, 1 ng/ml bFGF), the “Effect on bovine capillary endothelial cell proliferation” value is “INHIBITED”. Moreover, in experiment [4], the “Effect on mink lung epithelial cell proliferation” value is reported as “NON-INHIBITED”. The “Effect on 3T3 fibroblast proliferation” value with 3T3 fibroblasts was “no effect”; in the experiment with 3T3 fibroblasts (listed as ENDOSTATIN), “NON-INHIBITED”. Also, the “Effect on Lewis lung carcinoma cell proliferation” value in [5] is listed as “no effect”; in [5] (listed as ENDOSTATIN), “NON-INHIBITED”. For the same molecule, the “Effect on bovine aortic smooth muscle cell proliferation” value in [6] is “no effect”; in [6] (listed as ENDOSTATIN), “NON-INHIBITED”. In experiment [7], the “Inhibition of proliferation of cells of non-endothelial origin” value is “No significant inhibition”.

B2: endostatin derived from human: recombinant endostatin from the human sequence, produced in E. coli (protein, listed as Homo sapiens)
chain: B1 chain
Consider B2, for which the “Inhibition of Lewis lung carcinoma tumor growth by human endostatin” value in experiment [8] was “effectiveness”.
